Measured values as given in patent publication US20140141002A1 (UNIVERSITY OF NORTH CAROLINA AT CHAPEL HILL, published 2014).

Key:
[1] = biological target: Src homology 2 domain containing protein tyrosine phosphatase substrate 1 (SHPS-1), endogenous in porcine aortic smooth muscle cells (porcine) (UniProt F1S887); assay: SHPS-1 immunoprecipitated from transfected pSMCs, immunoblot for FLAG, densitometry
[2] = biological target: T1, integrin associated protein (IAP), endogenous in porcine aortic smooth muscle cells (porcine) (UniProt Q9GKE8); assay: pSMCs incubated 2 h with B6H12 (4 ug/ml); SHPS-1 immunoprecipitated, immunoblot for IAP, densitometry
T1 sequence (looked up): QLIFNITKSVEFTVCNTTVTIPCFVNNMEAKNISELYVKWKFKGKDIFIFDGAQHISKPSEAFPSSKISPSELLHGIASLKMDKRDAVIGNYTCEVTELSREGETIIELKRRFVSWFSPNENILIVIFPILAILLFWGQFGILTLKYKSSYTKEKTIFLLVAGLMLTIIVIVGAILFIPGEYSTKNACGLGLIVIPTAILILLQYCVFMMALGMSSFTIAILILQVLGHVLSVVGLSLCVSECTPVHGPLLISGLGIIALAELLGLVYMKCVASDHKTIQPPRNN

[3] = biological target: T2, Src homology 2 domain containing protein tyrosine phosphatase substrate 1 (SHPS-1), endogenous in porcine … (porcine, UniProt F1S887 31-509); assay: cell-based or functional assay
T2 sequence: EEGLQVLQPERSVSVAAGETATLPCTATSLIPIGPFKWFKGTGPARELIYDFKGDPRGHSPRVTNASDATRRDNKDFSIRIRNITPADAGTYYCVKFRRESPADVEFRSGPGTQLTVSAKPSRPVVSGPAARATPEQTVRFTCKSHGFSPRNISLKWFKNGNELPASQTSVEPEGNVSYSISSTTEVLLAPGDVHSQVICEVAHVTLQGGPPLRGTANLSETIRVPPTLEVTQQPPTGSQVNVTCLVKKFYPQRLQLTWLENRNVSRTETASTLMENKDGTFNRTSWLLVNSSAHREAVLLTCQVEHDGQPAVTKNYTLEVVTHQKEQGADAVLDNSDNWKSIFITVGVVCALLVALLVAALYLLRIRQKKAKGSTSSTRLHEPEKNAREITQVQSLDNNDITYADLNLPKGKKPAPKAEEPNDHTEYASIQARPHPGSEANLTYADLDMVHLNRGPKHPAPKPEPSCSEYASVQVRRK

Molecule: IAP with truncation of extracellular domain at residue 135 and containing a C-terminal FLAG epitope (IAPcyto) (from UniProt Q9GKE8 135-303) (receptor)
- % reduction in IAP association with SHPS-1 compared with cells expressing IAP fl [1]: 88%

B1: anti IAP monoclonal antibody B6H12 (antibody, from another filing)
scFv: EVQLVESGGDLVKPGGSLKLSCAASGFTFSGYGMSWVRQTPDKRLEWVATITSGGTYTYYPDSVKGRFTISRDNAKNTLYLQIDSLKSEDTAIYFCARSLAGNAMDYWGQGTSVTVSSGGGGSGGGGSGGGGSDIVMTQSPATLSVTPGDRVSLSCRASQTISDYLHWYQQKSHESPRLLIKFASQSISGIPSRFSGSGSGSDFTLSINSVEPEDVGVYYCQNGHGFPRTFGGGTKLEIKEQKLISEEDL
- % reduction of the interaction between IAP and SHPS-1 [2]: 75%

B2: integrin associated protein (IAP), endogenous in porcine aortic smooth muscle cells (receptor, UniProt Q9GKE8 19-303, looked up)
chain: QLIFNITKSVEFTVCNTTVTIPCFVNNMEAKNISELYVKWKFKGKDIFIFDGAQHISKPSEAFPSSKISPSELLHGIASLKMDKRDAVIGNYTCEVTELSREGETIIELKRRFVSWFSPNENILIVIFPILAILLFWGQFGILTLKYKSSYTKEKTIFLLVAGLMLTIIVIVGAILFIPGEYSTKNACGLGLIVIPTAILILLQYCVFMMALGMSSFTIAILILQVLGHVLSVVGLSLCVSECTPVHGPLLISGLGIIALAELLGLVYMKCVASDHKTIQPPRNN
- IGF-1 stimulated cell proliferation, cells incubated with B6H12 [3]: 1.03 fold
- IGF-1 stimulated increase in SHPS-1 phosphorylation, cells pretreated with B6H12 [3]: 0.93 fold
- fold increase in SHPS-1 phosphorylation in response to IGF-1, control cells (no antibody) [3]: 4.1 fold
- fold increase in cell proliferation with IGF-1, no antibody [3]: 2.2 fold
